Blank lines part the entries; values can stand above or below the binder they belong to.
Target: T1, Bcl2 (UniProt P10415 1-207, limits assumed, biotinylated)
T1 construct: Loaded on streptavidin biosensors; also called Biotinylated Bcl2; target
Assay: bio-layer interferometry (Octet), Bcl2 on tips, switch with nine residue toehold with and without cognate key
From the text: Specificity was designed for using different hydrogen bond networks at the cage-key interface. The latch helix was deleted from the original extended LOCKRₐ model and backbones for a new sixth helix were generated by parametrically sampling the radius, helical phase, and z-offset of the new latch/key helix. The resulting structures were scanned for new hydrogen bond networks spanning the interface between the new sixth helix and cage with all buried polar atoms participating in hydrogen bonds; the remaining interface around the networks was subjected to full sequence and sidechain rotamer optimization using Rosetta™ design. Five designs were selected based on packing quality, sequence dissimilarity, and lack of buried polar atoms not participating in hydrogen bonds. Truncations and toehold variants were assayed for cognate and off target key binding using the GFP pulldown assay from FIG. 1c. […] All bound keyₐ to some extent yet is unknown. The Bim sequence was threaded onto the latches of these three designs as it was for the original design, BimLOCKRₐ (FIG. 2). BimLOCKRb and BimLOCKR, show 22-fold and 8-fold activation, respectively, from their cognate keys given a nine residue toehold on the latch (FIG. 3a,b). BimLOCKRₐ, BimLOCKRb and BimLOCKRc are also orthogonal; each is activated only by its cognate key at concentrations up to 5 uM (FIG. 3c). […]

T1 sequence (P10415 1-207 limits assumed): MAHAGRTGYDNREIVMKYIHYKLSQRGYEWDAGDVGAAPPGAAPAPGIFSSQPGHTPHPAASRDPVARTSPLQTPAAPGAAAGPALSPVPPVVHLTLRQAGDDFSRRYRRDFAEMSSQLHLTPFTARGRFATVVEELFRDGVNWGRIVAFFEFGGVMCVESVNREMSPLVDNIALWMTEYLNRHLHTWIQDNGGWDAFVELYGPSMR

- fold activation of binding by the cognate key: 22 fold
B1: BimLOCKRb (nine residue toehold) (designed binder)
chain: MGSSHHHHHHSSGLVPRGSHMSHAAVIKLSDLNIRLLDKLLQAVIKLTELNAELNRKLIEALQRLFDLNVALVHLAAELTDPKRIADEIKKVKDKSKEIVERAEEEIARAAAESKKILDEAEEEIARAAAESKKILDEGSGSGSDAVAELQALNLKLAELLLEAVAELQALNLKLAELLLEAIAKLQELNIKLVELLTKLTDPATIREAIRKVKEDSERIVAEAERLIAAAKAESERIIREAERLIAAAKAESERIIREGSGSNDPQVAQNQETFIELARDALRLVAENQEAFIEVARLTLRAAALAQEVAIKAVEAASEGGSGSGNEIWIAQELRRIGDEFNAYYAEHKEIHDKLRKKNKKAREDLKKKADE

- fold activation of binding by the cognate key: 8 fold
B2: BimLOCKRc (nine residue toehold) (designed binder)
chain: MGSSHHHHHHSSGLVPRGSHMSLEAVLKLAELNLKLSDKLAEAVQKLAALLNKLLEKLSEALQRLFELNVALVTLAIELTDPKRIADEIKKVKDKSKEIVERAEEEIARAAAESKKILDEAEEEIARAAAESKKILDEGSGSGSDAVAELQALNLKLAELLLEAVAELQALNLKLAELLLEAIAKLQELNIKLVELLTKLTDPATIREAIRKVKEDSERIVAEAERLIAAAKAESERIIREAERLIAAAKAESERIIREGSGSNDPLVARLQELLIEHARELLRLVATSQEIFIELARAFLANAAQLQEAAIKAVEAASENGSGEIWIAQELRRIGDEFNAYYAQNQKLLKDHKRAQEKLNRELEELKKKHKK
notes: also called printed once as 'BimLOCKR,'

Source: US20200239524A1 (University of Washington, published 2020)
